Usually EC50 stands for the concentration that produces a half-maximal response.

Bounds are passed on as bounds.

In experiment [1] the target is T1, biotin conjugated 24 amino acid peptide of the extracellular loop of human EMP2 (human, biotin conjugated (position not given)).
T1 construct: The EMP2 part is followed by a GSGSK tail; also called hEMP2 peptide; hEMP2
T1 peptide: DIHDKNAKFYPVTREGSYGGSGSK
Description: ELISA, diabody titration on hEMP2 peptide on streptavidin plates. As for the experimental part: (§1) 10 μg/mL of biotinylated 24 amino acid peptide (see the phage library selection section above) was coated onto streptavidin-coated 96-well plates (Roche Applied Science, Indianapolis, Ind.) in PBS for 1 hour at room temperature. Plates were then washed with PBS and blocked with 2% milk PBS for 2 hours at 37° C. Expressed phage antibodies or diabodies were added to each well, incubated at room temperature for 1 hour, and washed with 0.05% PBS/Tween three times. Bound antibodies or diabodies were detected with mouse anti-c-Myc (9E10) antibody (Calbiochem, San Diego, Calif.), followed by horseradish peroxidase (HRP) conjugated anti-mouse antibody (BD Bioscience Pharmingen, Franklin Lakes, N.J.) and TMB solution (eBioscience, San Diego, Calif.). Plates were read by microplate reader Model 550 (Bio-Rad, Hercules, Calif.) at 450 nm.
(§2) Specificity and titer of selected diabodies were initially tested by ELISA using plates coated with hEMP2 or mEMP2 peptides. […] Using monovalent scFv products of these two antibodies, the EC₅₀ for cognate EMP2 peptide was >2 μg/mL (data not shown). Thus, divalency contributed to the avidity of the two anti-EMP2 diabodies.
On the technique in general: ELISA stands for enzyme-linked immunosorbent assay.

Experiment [2] concerns the target T1, biotin conjugated 24 amino acid peptide …. The experiment can be described thus: method and target not given; reference is the original scFv.
Experiment [3] deals with T2, biotin conjugated 24 amino acid peptide of the extracellular loop of mouse EMP2 (mouse, biotin conjugated (position not given)).
T2 construct: The EMP2 part is followed by a GSGSK tail; also called mEMP2 peptide; mEMP2
T2 peptide: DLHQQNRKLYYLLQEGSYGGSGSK
Description: ELISA on peptide-coated plates. As for the experimental part:
as §1, §2

Experiment [4] concerns the target T2, biotin conjugated 24 amino acid peptide …. The experiment can be described thus: ELISA on cognate EMP2 peptide (data not shown).
Experiment [5] deals with T1, biotin conjugated 24 amino acid peptide …. Description: ELISA on cognate EMP2 peptide (data not shown).
Experiment [6] addresses T2, biotin conjugated 24 amino acid peptide …. The experiment can be described thus: method and target not given; reference is the original scFv.
Experiment [7] deals with T1, biotin conjugated 24 amino acid peptide …. Description: ELISA on peptide-coated plates. As for the experimental part:
as §1, §2

For experiment [8], the target named is T2, biotin conjugated 24 amino acid peptide …. The experiment can be described thus: ELISA, diabody titration on mEMP2 peptide on streptavidin plates. As for the experimental part: as §1, §2

B1: anti-EMP2 diabody KS49 (other)
chain: MAQVQLVQSGGGVVQPGRSLRLSCAASGFTFSSYAMHWVRQAPGKGLEWVAVISYDGSNKYYADSVKGRFTISRDNSKNTLYLQMNSLRAEDTAVYYCARDRRGRKSAGIDYWGQGTLVTVSSSGGGSDIQMTQSPSSLSASVGDRVTITCQASQDISNYLNWYQQKPGKAPKLLIYAASSLQSGVPSRFSGSGSGTDFTLTISSLQPEDFATYYCLQDYNGWTFGQGTKVDIKRAAAEQKLISEEDLNGAAHHHHHH
notes: Diabody: bivalent dimer of a VH-5 aa linker-VL chain with c-Myc and 6 His tags, made in E. coli TG1; Selected against the hEMP2 peptide; also called K49; anti-hEMP2 diabody
B1 yielded an EC50 in experiment [1] of 0.0531 µg/mL. Besides, the “fold increase in binding activity compared to original scFvs” value in experiment [2] is more than 20 fold. Also, in experiment [3], the binding result is “no binding”.

B2: KS83 monovalent scFv (scFv)
scFv: MAQVQLVESGGGLVQPGGSLRLSCAASGFTFSSYAMHWVRQAPGKGLEWVAVISYDGSNKYYADSVKGRFTISRDNSKNTLYLQMNSLRAEDTAVYYCARTVGATGAFDIWGQGTMVTVSSSGGGGSGGGGSGGGGSDIVMTQSPSTVSASVGDRVIIPCRASQSIGKWLAWYQQKPGKAPKLLIYKASSLEGWVPSRFSGSGSGTEFSLTISSLQPDDSATYVCQQSHNFPPTFGGGTKLEIKRAAAEQKLISEEDLNGAAHHHHHH
notes: The original scFv before the linker was shortened; also called KS83 scFv
With B2, the concentration giving a half-maximal response (EC50) in experiment [4] is more than 2 µg/mL.

B3: KS49 monovalent scFv (scFv)
scFv: MAQVQLVQSGGGVVQPGRSLRLSCAASGFTFSSYAMHWVRQAPGKGLEWVAVISYDGSNKYYADSVKGRFTISRDNSKNTLYLQMNSLRAEDTAVYYCARDRRGRKSAGIDYWGQGTLVTVSSGGGGSGGGGSGGGGSDIQMTQSPSSLSASVGDRVTITCQASQDISNYLNWYQQKPGKAPKLLIYAASSLQSGVPSRFSGSGSGTDFTLTISSLQPEDFATYYCLQDYNGWTFGQGTKVDIKRAAAEQKLISEEDLNGAAHHHHHH
notes: The original scFv before the linker was shortened; also called KS49 scFv
B3 gave an EC50 in experiment [5] of more than 2 µg/mL.

B4: anti-EMP2 diabody KS83 (other)
chain: MAQVQLVESGGGLVQPGGSLRLSCAASGFTFSSYAMHWVRQAPGKGLEWVAVISYDGSNKYYADSVKGRFTISRDNSKNTLYLQMNSLRAEDTAVYYCARTVGATGAFDIWGQGTMVTVSSSSGGGSDIVMTQSPSTVSASVGDRVIIPCRASQSIGKWLAWYQQKPGKAPKLLIYKASSLEGWVPSRFSGSGSGTEFSLTISSLQPDDSATYVCQQSHNFPPTFGGGTKLEIKRAAAEQKLISEEDLNGAAHHHHHH
notes: Diabody: bivalent dimer of a VH-5 aa linker-VL chain with c-Myc and 6 His tags; Selected against the mEMP2 peptide; also called K83; diabody 83
Consider B4, for which the “fold increase in binding activity compared to original scFvs” value in experiment [6] was more than 20 fold. Also, in experiment [7], the binding result is “no binding”. Besides, a half-maximal response in experiment [8] (EC50) required 0.00932 µg/mL.

The values are drawn from patent US20130230527A1 (University of California, published 2013).
